Experimental data published in the Immune Epitope Database (IEDB).

Columns and labels:
HLA-A*03:01 [1] = assay: IEDB peptide-MHC binding, purified MHC/competitive/fluorescence; ≥ and ≤ were set here for values at or beyond the usual limits of such assays
HLA-A*11:01 [2] = assay: as above
HLA-A*01:01 = assay: IEDB peptide-MHC binding, purified MHC/direct/fluorescence; filed as Kd, often an IC50 or EC50 that approximates it; ≥ and ≤ were set here for values at or beyond the usual limits of such assays; settings: source organism: Escherichia coli O157:H7
HLA-A*02:01 [3] = assay: as above; settings: source organism: Escherichia coli O157:H7
HLA-A*03:01 [4] = assay: as above
HLA-A*11:01 [5] = assay: as above
HLA-A*31:01 [6] = assay: as above; settings: source organism: Escherichia coli O157:H7
HLA-A*68:02 = assay: as above; settings: source organism: Escherichia coli O157:H7
HLA-A*69:01 = assay: as above
HLA-B*07:02 = assay: as above; settings: source organism: Escherichia coli O157:H7
HLA-B*15:01 [7] = assay: as above; settings: source organism: Escherichia coli O157:H7
HLA-B*15:17 = assay: as above; settings: source organism: Escherichia coli O157:H7
HLA-B*18:01 = assay: as above; settings: source organism: Escherichia coli O157:H7
HLA-B*27:05 = assay: as above; settings: source organism: Escherichia coli O157:H7
HLA-B*40:01 = assay: as above; settings: source organism: Escherichia coli O157:H7
HLA-B*44:02 = assay: as above; settings: source organism: Escherichia coli O157:H7
HLA-B*48:01 = assay: as above; settings: source organism: Escherichia coli O157:H7
HLA-B*57:01 = assay: as above; settings: source organism: Escherichia coli O157:H7
HLA-B*58:01 = assay: as above; settings: source organism: Escherichia coli O157:H7
HLA-A*31:01 [8] = assay: IEDB peptide-MHC binding, purified MHC/competitive/fluorescence; filed as Kd, often an IC50 or EC50 that approximates it; ≥ and ≤ were set here for values at or beyond the usual limits of such assays
HLA-A*03:01 [9] = assay: as above
HLA-B*15:01 [10] = assay: as above; settings: source organism: Escherichia coli E22
HLA-A*30:01 = assay: IEDB peptide-MHC binding, purified MHC/competitive/radioactivity; filed as Kd, often an IC50 or EC50 that approximates it; ≥ and ≤ were set here for values at or beyond the usual limits of such assays
HLA-A*32:01 = assay: as above
HLA-B*08:01 = assay: as above
HLA-B*15:01 [11] = assay: as above
HLA-B*15:03 = assay: as above
HLA-A*02:01 [12] = assay: IEDB peptide-MHC binding, purified MHC/competitive/fluorescence; ≥ and ≤ were set here for values at or beyond the usual limits of such assays
HLA-A*02:12 = assay: IEDB peptide-MHC binding, purified MHC/direct/fluorescence; filed as Kd, often an IC50 or EC50 that approximates it; ≥ and ≤ were set here for values at or beyond the usual limits of such assays; settings: source organism: Mycobacterium tuberculosis str. Haarlem
HLA-A*68:01 = assay: IEDB peptide-MHC binding, purified MHC/competitive/radioactivity; filed as Kd, often an IC50 or EC50 that approximates it; ≥ and ≤ were set here for values at or beyond the usual limits of such assays; settings: source organism: Dengue virus 1 Brazil/97-11/1997
HLA-A*02:11 = assay: IEDB peptide-MHC binding, purified MHC/direct/fluorescence; filed as Kd, often an IC50 or EC50 that approximates it; ≥ and ≤ were set here for values at or beyond the usual limits of such assays; settings: source organism: Mycobacterium tuberculosis str. Haarlem
HLA-A*24:02 = assay: IEDB peptide-MHC binding, purified MHC/competitive/fluorescence; ≥ and ≤ were set here for values at or beyond the usual limits of such assays
[13] = source organism: Vaccinia virus
[14] = source organism: Escherichia coli O157:H7
[15] = source organism: Mammarenavirus lassaense
[16] = source organism: Zaire ebolavirus
[17] = source organism: Vaccinia virus WR
[18] = source organism: Escherichia coli E22
[19] = source organism: Giardia lamblia ATCC 50803
[20] = source organism: Vaccinia virus Copenhagen
[21] = source organism: Sudan ebolavirus
[22] = source organism: Mycobacterium tuberculosis
[23] = source organism: Dengue virus 1 Brazil/97-11/1997

Sequence: INNQLLLQK
- IC50 (HLA-A*03:01 [1]; [13]): 64200 nM
- IC50 (HLA-A*11:01 [2]; [13]): 2440 nM

Sequence: YECTSRHFT
- Kd (HLA-A*01:01): ≥ 20000 nM
- Kd (HLA-A*02:01 [3]): ≥ 20000 nM
- Kd (HLA-A*03:01 [4]; [14]): ≥ 20000 nM
- Kd (HLA-A*11:01 [5]; [14]): ≥ 20000 nM
- Kd (HLA-A*31:01 [6]): ≥ 20000 nM
- Kd (HLA-A*68:02): ≥ 20000 nM
- Kd (HLA-A*69:01; [14]): ≥ 20000 nM
- Kd (HLA-B*07:02): ≥ 20000 nM
- Kd (HLA-B*15:01 [7]): ≥ 20000 nM
- Kd (HLA-B*15:17): ≥ 20000 nM
- Kd (HLA-B*18:01): 318 nM
- Kd (HLA-B*27:05): ≥ 20000 nM
- Kd (HLA-B*40:01): 2270 nM
- Kd (HLA-B*44:02): ≥ 20000 nM
- Kd (HLA-B*48:01): ≥ 20000 nM
- Kd (HLA-B*57:01): ≥ 20000 nM
- Kd (HLA-B*58:01): ≥ 20000 nM

Sequence: STFTRGAQK
- Kd (HLA-A*03:01 [4]; [15]): 78.4 nM
- Kd (HLA-A*11:01 [5]; [15]): 1.5 nM
- Kd (HLA-A*31:01 [8]; [15]): 27 nM

Sequence: MVQVHSQGR
- IC50 (HLA-A*03:01 [1]; [16]): 61400 nM
- IC50 (HLA-A*11:01 [2]; [16]): 4760 nM

Sequence: NLQPPALSK
- Kd (HLA-A*03:01 [9]; source organism: Rickettsia sibirica 246): 430 nM

Sequence: TCKAFGLYK
- IC50 (HLA-A*03:01 [1]; [17]): 6410 nM
- IC50 (HLA-A*11:01 [2]; [17]): 1140 nM

Sequence: IMYPSPNGH
- Kd (HLA-A*03:01 [9]; source organism: Shigella sonnei Ss046): 7.7 nM

Sequence: EMFIIKYFK
- Kd (HLA-A*03:01 [9]; [18]): ≥ 20000 nM
- Kd (HLA-A*31:01 [8]; [18]): 394 nM
- Kd (HLA-B*15:01 [10]): ≥ 20000 nM

Sequence: QTIVFIWFI
- Kd (HLA-A*30:01; [13]): 6240 nM
- Kd (HLA-A*32:01; [13]): 1760 nM
- Kd (HLA-B*08:01; [13]): 16900 nM
- Kd (HLA-B*15:01 [11]; [13]): 253 nM
- Kd (HLA-B*15:03; [13]): 1030 nM

Sequence: TTHSKGATK
- Kd (HLA-A*03:01 [4]; [19]): 337 nM
- Kd (HLA-A*11:01 [5]; [19]): 246 nM
- Kd (HLA-A*31:01 [8]; [19]): 454 nM

Sequence: VSFSPSLTF
- Kd (HLA-A*32:01; [20]): 736 nM
- Kd (HLA-B*15:01 [11]; [20]): 1.26 nM
- Kd (HLA-B*15:03; [20]): 1.22 nM

Sequence: FKFNSQVSI
- Kd (HLA-B*15:03; [17]): 1.24 nM

Sequence: KTLKYSNKI
- Kd (HLA-A*30:01; [17]): 37.5 nM
- Kd (HLA-A*32:01; [17]): 1.9 nM
- Kd (HLA-B*08:01; [17]): 1180 nM
- Kd (HLA-B*15:01 [11]; [17]): 123 nM
- Kd (HLA-B*15:03; [17]): 448 nM

Sequence: LIPFLILFI
- Kd (HLA-A*30:01; [20]): 97 nM
- Kd (HLA-A*32:01; [20]): 12100 nM
- Kd (HLA-B*08:01; [20]): 49.7 nM
- Kd (HLA-B*15:01 [11]; [20]): 471 nM
- Kd (HLA-B*15:03; [20]): 195 nM

Sequence: RQSSCKMAL
- Kd (HLA-B*15:03; [17]): 18.8 nM

Sequence: SLLQLPRDK
- IC50 (HLA-A*02:01 [12]; [21]): 16500 nM
- IC50 (HLA-A*03:01 [1]; [21]): 3840 nM
- IC50 (HLA-A*11:01 [2]; [21]): 5080 nM

Sequence: SPGIRPRFL
- Kd (HLA-A*30:01; [20]): 8430 nM
- Kd (HLA-A*32:01; [20]): 2810 nM
- Kd (HLA-B*08:01; [20]): 55.8 nM
- Kd (HLA-B*15:01 [11]; [20]): 1920 nM
- Kd (HLA-B*15:03; [20]): 10300 nM

Sequence: LVDYGLVSK
- IC50 (HLA-A*03:01 [1]; [17]): 12500 nM
- IC50 (HLA-A*11:01 [2]; [17]): 1330 nM

Sequence: AKSKFPRSM
- Kd (HLA-B*15:03; [17]): 0.261 nM

Sequence: SQVSSTELF
- Kd (HLA-B*15:03; [17]): 1.83 nM

Sequence: ALTKNYLSF
- Kd (HLA-B*15:03; [17]): 40.1 nM

Sequence: QRVIPVYQV
- IC50 (HLA-A*02:01 [12]; [16]): ≥ 113000 nM
- IC50 (HLA-A*03:01 [1]; [16]): ≥ 93500 nM
- IC50 (HLA-A*11:01 [2]; [16]): 16200 nM

Sequence: LLGQNTPAI
- Kd (HLA-A*02:12): 4 nM
- Kd (HLA-A*69:01; [22]): 1190 nM

Sequence: RLNWLTHLK
- Kd (HLA-A*03:01 [4]; source organism: Influenza A virus (A/Nagasaki/N03/2005(H3N2))): 264 nM
- Kd (HLA-A*31:01 [8]; source organism: Influenza A virus (A/CHU/2-524/2005(H3N2))): 2.5 nM

Sequence: NKFFEVIFF
- Kd (HLA-B*15:03; [17]): 18.8 nM

Sequence: KTFDTEYQK
- Kd (HLA-A*11:01 [5]; source organism: Dengue virus 1 Singapore/S275/1990): 12.5 nM
- Kd (HLA-A*31:01 [8]; source organism: dengue virus type 1): 128 nM
- Kd (HLA-A*30:01; [23]): 388 nM
- Kd (HLA-A*32:01; [23]): 7720 nM
- Kd (HLA-A*68:01): 4.6 nM

Sequence: VTRFESLK
- Kd (HLA-A*03:01 [9]; source organism: Influenza A virus (A/Swine/Minnesota/55551/2000(H1N2))): ≥ 20000 nM

Sequence: KSVEDVSAF
- Kd (HLA-B*15:03; [17]): 13.6 nM

Sequence: AVNNLVELK
- Kd (HLA-A*03:01 [4]; [15]): 2400 nM
- Kd (HLA-A*11:01 [5]; [15]): 11.2 nM
- Kd (HLA-A*31:01 [8]; source organism: Lassa virus Josiah): 77.5 nM

Sequence: MVLASTTAK
- Kd (HLA-A*03:01 [4]; source organism: Influenza A virus (A/turkey/MN/735/79(H6N2))): 15.9 nM
- Kd (HLA-A*31:01 [8]; source organism: Influenza A virus (A/swine/Hannover/1/1981(H1N1))): 46.1 nM

Sequence: SVFESWLEK
- Kd (HLA-A*03:01 [9]; [18]): 211 nM

Sequence: LLDEGKQSL
- Kd (HLA-A*02:11): 4 nM
- Kd (HLA-A*02:12): 4 nM
- Kd (HLA-A*69:01; [22]): 7000 nM

Sequence: LRTYTILNR
- IC50 (HLA-A*03:01 [1]; [21]): ≥ 286000 nM

Sequence: ITHPKYRKK
- Kd (HLA-A*03:01 [9]; source organism: Vibrio antiquarius): ≥ 20000 nM

Sequence: LTGGTGVGK
- IC50 (HLA-A*03:01 [1]; source organism: Variola virus): 5750 nM
- IC50 (HLA-A*11:01 [2]; source organism: Variola virus): 998 nM
- IC50 (HLA-A*24:02; source organism: Variola virus): 38800 nM

Sequence: HLYNILNNI
- Kd (HLA-A*30:01; [17]): 1450 nM
- Kd (HLA-A*32:01; [17]): 72.6 nM
- Kd (HLA-B*08:01; [17]): 1970 nM
- Kd (HLA-B*15:01 [11]; [17]): 1480 nM
- Kd (HLA-B*15:03; [17]): 1400 nM

Sequence: LMQGSTLPR
- Kd (HLA-A*03:01 [4]; source organism: Influenza A virus (A/South Carolina/1/1918(H1N1))): 6000 nM
- Kd (HLA-A*31:01 [8]; source organism: Influenza A virus (A/swine/Italy/1509-6/97(H1N1))): 30.2 nM

Sequence: LMMTATGEY
- Kd (HLA-A*03:01 [9]; source organism: Escherichia coli B7A): 1780 nM

Sequence: DYHKILTAG
- IC50 (HLA-A*03:01 [1]; [16]): ≥ 164000 nM
- IC50 (HLA-A*11:01 [2]; [16]): 58500 nM
- IC50 (HLA-A*24:02; [16]): 39900 nM
